# Values of other authors in paper PMC3871196.
# Biological target: Calmodulin (UniProt P0DP23)
substance,measurement,value
Peripherin/rds PerCter C-terminal domain (from UniProt P17810),Kd,0.32 µM
